From publication PMC11032447

Assays:
Test in all cases: ITC; secretagogin construct in the cell (10-100 µM), partner in the syringe (80-1500 µM); 25 mM HEPES pH 8.0, 150 mM NaCl, 2 mM CaCl2; 20 °C; MicroCal iTC200; single-site binding model
[1] = target: mouse secretagogin (mouse) (UniProt Q91WD9)
[2] = target: mouse secretagogin L270A (mouse) (UniProt Q91WD9)
[3] = target: mouse secretagogin M229A (mouse) (UniProt Q91WD9)
[4] = target: mouse secretagogin M229E (mouse) (UniProt Q91WD9)
[5] = target: mouse secretagogin R198A (mouse) (UniProt Q91WD9)
Chain of mouse secretagogin R198A (mouse) (Q91WD9 whole entry R198A): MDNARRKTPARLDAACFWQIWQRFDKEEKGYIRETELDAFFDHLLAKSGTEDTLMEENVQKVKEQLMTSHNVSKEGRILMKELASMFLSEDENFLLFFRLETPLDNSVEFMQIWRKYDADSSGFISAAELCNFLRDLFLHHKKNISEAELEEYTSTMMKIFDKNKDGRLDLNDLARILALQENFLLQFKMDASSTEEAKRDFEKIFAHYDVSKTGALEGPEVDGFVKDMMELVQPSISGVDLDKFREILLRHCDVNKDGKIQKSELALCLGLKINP

[6] = target: mouse secretagogin V233A (mouse) (UniProt Q91WD9)
Chain of mouse secretagogin V233A (mouse) (Q91WD9 whole entry V233A): as the sequence (Q91WD9 whole entry R198A) above, with A198R, V233A counted along it

Chain of mouse secretagogin (mouse) (Q91WD9 whole entry): as the sequence (Q91WD9 whole entry R198A) above, with A198R counted along it
Chain of mouse secretagogin L270A (mouse) (Q91WD9 whole entry L270A): as the sequence (Q91WD9 whole entry R198A) above, with A198R, L270A counted along it
Chain of mouse secretagogin M229A (mouse) (Q91WD9 whole entry M229A): as the sequence (Q91WD9 whole entry R198A) above, with A198R, M229A counted along it
Chain of mouse secretagogin M229E (mouse) (Q91WD9 whole entry M229E): as the sequence (Q91WD9 whole entry R198A) above, with A198R, M229E counted along it

Row | Substance | Kd [1] [µM] | Kd [2] [µM] | Kd [3] [µM] | Kd [4] [µM] | Kd [5] [µM] | Kd [6] [µM]
1 | Ha helix of the Habc domain of mouse syntaxin-4, His6-tagged (from UniProt P70452 1-298) (domain or fragment) | 6.67 | – | – | – | – | –
2 | Habc domain of mouse syntaxin-4, His6-tagged (from UniProt P70452 1-298) (domain or fragment) | 14.1 | – | – | – | – | –
3 | Hb helix of the Habc domain of mouse syntaxin-4, His6-tagged (domain or fragment) | – | 16.2 | 1.62 | 5.21 | 0.808 | 0.125
